The source of these data is patent publication US9045527 (WILLIAM MARSH RICE UNIVERSITY, dated 2015).

Assay [1] has as its target T1, CAL PDZ domain (CALP), wild type (UniProt Q9HD26 278-362). The assay can be described thus: fluorescence anisotropy displacement of a fluorescent reporter peptide; apparent Ki, not significantly different from Rh2(OAc)4.
Protocol: (§1) Protein binding studies: Fluorescence anisotropy inhibition binding assays were performed using standard procedures. […] Following equilibration, fluorescence anisotropy values were determined using a Tecan Infinite M1000 plate reader (n=3). Inhibitor equilibrium dissociation (Ki) constants were estimated as described. DMSO and rhodium(II) acetate were used as negative controls for unlabeled and labeled peptides, respectively.
The target in assay [2] is T1, CAL PDZ domain (CALP), wild type. As to the kind of experiment: fluorescence anisotropy displacement of a fluorescent reporter peptide.
Protocol: as §1
A further assay has as its target CALP-H301A mutant (UniProt Q9HD26 278-362). The assay is described as above.
The target of the next assay is T2, K3a,eRh2 metallopeptide (chain 1 pos 9 (heptad a) and pos 13 (heptad e): Glu side-chain carboxylates bridged by one dirhodium(II) centre, written E. N-terminal acetyl per paragraph 78. C-terminal form not stated.).
T2 peptide: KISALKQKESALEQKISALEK
As to the kind of experiment: thermal denaturation of an equimolar mixture, CD.

Where no end group is shown, it is not given here.

Protocol for CALP-H301A mutant: as §1
Protocol for K3a,eRh2 metallopeptide: Temperature denaturation curves were fit to a two-state unfolding model and plotted (black line, S-5) as fraction unfolded vs. temperature as described previously by Lavigne et al.8 Error associated with the non-linear least squared-determined Tm was determined using the freely available "Solver Statistics" macro for Microsoft Excel.

B1: VQD^RhTRL metallopeptide (peptide)
peptide: Ac-VQD(dirhodium)TRL-OH
modifications: also: dirhodium metal complex at Asp side-chain carboxylate
Take B1: the Ki in assay [1] was 6.3 µM.

B2: E^RhWPTSII metallopeptide (peptide)
peptide: Ac-E(dirhodium)WPTSII-OH
modifications: also: dirhodium metal complex at Glu side chain
With B2, the Ki in assay [2] was 1.7 µM.

B3: E^RhVQSTRL metallopeptide (peptide)
peptide: Ac-E(dirhodium)VQSTRL-OH
modifications: also: dirhodium metal complex at Glu side-chain carboxylate
For the molecule B3, the Ki is 0.56 µM in assay [2] and 9.2 µM in the assay with CALP-H301A mutant.

B4: E3gC peptide (peptide)
peptide: Ac-EISALEKCISALEQEISALEK
For the molecule B4, the binding result in the assay with K3a,eRh2 metallopeptide is reported as “binds”.
